The source of these data is the supplement of paper PMC7877785.

This series is described as follows: self-splicing fitness, log relative to wild type (ln ratio); higher = more splicing; Tetrahymena group I intron in knt gene, E. coli kanamycin selection, DiMSum; sequences stand for … in CUCUCU…GGAGGGAAAAGUUAUCAGGCAUGCACCUGGUAGCUAGUCUUUAAACCAAUAGAUUGCAUCGGUUUAAAAGGCAAGACCGUCAAAUUGCGGGAAAGGGGUCAACAGCCGUUCAGUACCAAGUCUCAGGGGAAACUUUGAGAUGGCCUUGCAAAGGGUAUGGUAAUAAGCUGACGGACAUGGUCCUAACCACGCAGCCAAGUCCUAAGUCAACAGAUCUUCUGUUGAUAUGGAUGCAGUUCACAGACUAAAUGUCGGUCGGGGAAGAUGUAUUCUUCUCAUAAGAUAUAGUCGGACCUCUCCUUAAUGGGAGCUAGCGGAUGAAGUGAUGCAACACUGGAGCCGCUGGGAACUAAUUUGUAUGCGAAAGUAUAUUGAUUAGUUUUGGAGUACUCGUGGUCG
Put shortly:
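Six replicate transformations of E. coli BL21(DE3) with a pET-22b(+) library were grown overnight at 37°C or 30°C. The library randomised all eight P1ex-region intron nucleotides, the intron lying in the knt kanamycin-resistance gene, and plates were LB agar with or without 25 μg/mL kanamycin plus 100 μg/mL carbenicillin, 50 μM IPTG and 0.2% rhamnose. Pooled colonies were amplicon-sequenced on an Illumina HiSeq 2500, and fitness is the DiMSum error-weighted combination of wild-type-normalised replicate fold changes, kanamycin versus none.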

± gives the uncertainty stated by the source.

On to ACGAAGCAAUAUUACGCCGC, for which the “self-splicing fitness (ln)” value (30 °C) was -3.56 ± 0.21 and the “self-splicing fitness (ln)” value (37 °C) was -2.02 ± 0.24.

As to AGUUAGCAAUAUUACGCCGU, the “self-splicing fitness (ln)” value by setting is: (30 °C) -1.15 ± 0.099; (37 °C) -0.939 ± 0.14. On to UUGUAGCAAUAUUACGUUGA, for which the “self-splicing fitness (ln)” value reads like this: (30 °C) -2.95 ± 0.29; (37 °C) -0.294 ± 0.19. Take ACCUAGCAAUAUUACGGACC: the “self-splicing fitness (ln)” value reads like this: (30 °C) -0.548 ± 0.16; (37 °C) 0.368 ± 0.17. Turning to GUAGAGCAAUAUUACGCUCC, the “self-splicing fitness (ln)” value (30 °C) was -1.72 ± 0.36. With CUUGAGCAAUAUUACGUCCA, the “self-splicing fitness (ln)” value is, setting by setting: (30 °C) -3.91 ± 0.39; (37 °C) -2.55 ± 0.41. Regarding CUCAAGCAAUAUUACGUGAG, the “self-splicing fitness (ln)” value is, setting by setting: (30 °C) -3.05 ± 0.11; (37 °C) -3.3 ± 0.16. In the same order, the values of UCAGAGCAAUAUUACGGCGU are -3.42 ± 0.22 and -2.05 ± 0.18. As for UGUAAGCAAUAUUACGACCA, the “self-splicing fitness (ln)” value runs as follows: (30 °C) 0.386 ± 0.12; (37 °C) 0.0758 ± 0.19. The corresponding values for UAAGAGCAAUAUUACGUACG are -1.42 ± 0.16 and -1.73 ± 0.17. As to UAUCAGCAAUAUUACGUUGC, the “self-splicing fitness (ln)” value is -3.53 ± 0.18 (30 °C) and -2.37 ± 0.15 (37 °C). The corresponding values for CCUAAGCAAUAUUACGUCAU are -4.09 ± 0.22 and -2.83 ± 0.22. The corresponding values for GACCAGCAAUAUUACGUCGA are -1.44 ± 0.078 and -0.592 ± 0.078. The corresponding values for AUCUAGCAAUAUUACGUCAA are -2.6 ± 0.29 and -1.68 ± 0.21. Take AGAGAGCAAUAUUACGUAAU: the “self-splicing fitness (ln)” value was -4.18 ± 0.33 (30 °C) and -2.81 ± 0.34 (37 °C). In the same order, the values of AUGAAGCAAUAUUACGGUGC are -2.3 ± 0.15 and -1.99 ± 0.19. Take UAGGAGCAAUAUUACGGACG: under “37 °C”, the “self-splicing fitness (ln)” value is -0.862 ± 0.38.

In the case of UAUGAGCAAUAUUACGCACA, the “self-splicing fitness (ln)” value runs as follows: (30 °C) -0.923 ± 0.21; (37 °C) -0.282 ± 0.21. In the same order, the values of CUAAAGCAAUAUUACGCAGG are -0.529 ± 0.12 and -1.09 ± 0.19. In the same order, the values of UGGCAGCAAUAUUACGUAGG are -0.869 ± 0.092 and -0.975 ± 0.14. With CGAAAGCAAUAUUACGGUGC, the “self-splicing fitness (ln)” value is, setting by setting: (30 °C) -3.09 ± 0.17; (37 °C) -2.65 ± 0.21.

Consider AGCAAGCAAUAUUACGCGGA, for which the “self-splicing fitness (ln)” value runs as follows: (30 °C) -2.04 ± 0.13; (37 °C) -0.823 ± 0.099. In the same order, the values of CAGUAGCAAUAUUACGUUAG are -1.32 ± 0.072 and 0.119 ± 0.096. The corresponding values for ACCGAGCAAUAUUACGACAC are -3.48 ± 0.38 and -1.73 ± 0.26. The corresponding values for CUGAAGCAAUAUUACGUCAC are -2.03 ± 0.11 and -2.73 ± 0.24. On to CUGUAGCAAUAUUACGCAUG, for which the “self-splicing fitness (ln)” value is, setting by setting: (30 °C) -1.06 ± 0.1; (37 °C) -0.55 ± 0.13. The corresponding values for CAUCAGCAAUAUUACGAAUU are -1.2 ± 0.11 and -1.55 ± 0.14.

Take GAGAAGCAAUAUUACGCCGG: the “self-splicing fitness (ln)” value by setting is: (30 °C) -2.05 ± 0.44; (37 °C) 0.0344 ± 0.4. For the sequence UUUGAGCAAUAUUACGGUGC, the “self-splicing fitness (ln)” value was -2.74 ± 0.47 (30 °C) and -2.2 ± 0.33 (37 °C).

As to GGAUAGCAAUAUUACGCAUC, where the note is “37 °C”, the “self-splicing fitness (ln)” value is -1.63 ± 0.38.

For UGUCAGCAAUAUUACGUACU, the “self-splicing fitness (ln)” value reads like this: (30 °C) -0.114 ± 0.058; (37 °C) 0.497 ± 0.078. As for UAUUAGCAAUAUUACGUGAU, the “self-splicing fitness (ln)” value is, setting by setting: (30 °C) -2.82 ± 0.17; (37 °C) -1.99 ± 0.18. The corresponding values for GUUCAGCAAUAUUACGCGUC are -1.41 ± 0.071 and -0.257 ± 0.078. In the same order, the values of GGCGAGCAAUAUUACGGUAA are -2.66 ± 0.16 and -1.77 ± 0.2.

AAUGAGCAAUAUUACGCAUA: the “self-splicing fitness (ln)” value (30 °C) is -2.52 ± 0.19 and the “self-splicing fitness (ln)” value (37 °C) was -2.42 ± 0.24.

For the sequence AAAUAGCAAUAUUACGAAAG, the “self-splicing fitness (ln)” value by setting is: (30 °C) -3.48 ± 0.18; (37 °C) -1.6 ± 0.14. The corresponding values for UAAUAGCAAUAUUACGGCGU are -2.6 ± 0.19 and -1.6 ± 0.24. In the same order, the values of CUCCAGCAAUAUUACGAAAC are -3.94 ± 0.32 and -2.44 ± 0.26.
